# Measured values from patent US20220396635A1 (UNIVERSIT T STUTTGART, published 2022).
# B1: scDbhu225xhuU3-scFvhu225 (bispecific antibody)
# chain: EVQLVESGGGLVQPGGSLRLSCAASGFSLTNYGVHWVRQAPGKGLEWLGVIWSGGNTDYNTPFTSRFTISRDNSKNTLYLQMNSLRAEDTAVYYCARALTYYDYEFAYWGQGTTVTVSSGGGGSDIQMTQSPSSLSASVGDRVTITCRASQDIRNYLNWYQQKPGKAPKLLIYYTSRLHSGVPSRFSGSGSGTDFTFTISSLQPEDIATYYCQQGNTLPWTFGQGTKLEIKRGGGGSGGGGSGGGGSQVQLVQSGAEVKKPGSSVKVSCKASGGTFSGYTMNWVRQAPGQGLEWMGLINPYKGVSTYNGKFKDRVTITADKSTSTAYMELSSLRSEDTAVYYCARSGYYGDSDWYFDVWGQGTLVTVSSGGGGSDIQLTQSPSFLSASVGDRVTITCRASQSIGTNIHWYQQKPGKAPKLLIKYASESISGVPSRFSGSGSGTEFTLTISSLQPEDFATYYCQQNNNWPTTFGAGTKLEIKRAAAGGSGGGGSGGGTEVQLVESGGGLVQPGGSLRLSCAASGFSLTNYGVHWVRQAPGKGLEWLGVIWSGGNTDYNTPFTSRFTISRDNSKNTLYLQMNSLRAEDTAVYYCARALTYYDYEFAYWGQGTTVTVSSGGGGSGGGGSGGGGSDIQLTQSPSFLSASVGDRVTITCRASQSIGTNIHWYQQKPGKAPKLLIKYASESISGVPSRFSGSGSGTEFTLTISSLQPEDFATYYCQQNNNWPTTFGAGTKLEIKRSLHHHHHH
# notes: the end number was counted from the printed lines; The His tag is part of the entry; also called scDb-scFv; trivalent, bispecific bisAb targeting EGFR and CD3
# B2: scDb/scFv-Fc (1-1)+2, trivalent bispecific anti-HER3×anti-CD3 (bispecific antibody)
# chain 1: QVQLQQSGPGLVKPSQTLSLTCAISGDSVSSNRAAWNWIRQSPSRGLEWLGRTYYRSKWYNDYAQSLKSRITINPDTPKNQFSLQLNSVTPEDTAVYYCARDGQLGLDALDIWGQGTMVTVSSGGGGSQAGLTQPPAVSVAPGQTASITCGRDNIGSRSVHWYQQKPGQAPVLVVYDDSDRPAGIPERFSGSNYENTATLTISRVEAGDEADYYCQVWGITSDHVVFGGGTKLTVLGGGGSGGGGSGGGGSQVQLQQSGPGLVKPSQTLSLTCAISGDSVSSNRAAWNWIRQSPSRGLEWLGRTYYRSKWYNDYAQSLKSRITINPDTPKNQFSLQLNSVTPEDTAVYYCARDGQLGLDALDIWGQGTMVTVSSGGGGSQAGLTQPPAVSVAPGQTASITCGRDNIGSRSVHWYQQKPGQAPVLVVYDDSDRPAGIPERFSGSNYENTATLTISRVEAGDEADYYCQVWGITSDHVVFGGGTKLTVLAAADKTHTCPPCPAPPVAGPSVFLFPPKPKDTLMISRTPEVTCVVVDVSHEDPEVKFNWYVDGVEVHNAKTKPREEQYNSTYRVVSVLTVLHQDWLNGKEYKCKVSNKGLPSSIEKTISKAKGQPREPQVCTLPPSRDELTKNQVSLSCAVKGFYPSDIAVEWESNGQPENNYKTTPPVLDSDGSFFLVSKLTVDKSRWQQGNVFSCSVMHEALHNHYTQKSLSLSPGK
# chain 2: DIQMTQSPSSLSASVGDRVTITCRASQDIRNYLNWYQQKPGKAPKLLIYYTSRLHSGVPSRFSGSGSGTDFTFTISSLQPEDIATYYCQQGNTLPWTFGQGTKLEIKRGGGGSGGGGSGGGGSQVQLVQSGAEVKKPGSSVKVSCKASGGTFSGYTMNWVRQAPGQGLEWMGLINPYKGVSTYNGKFKDRVTITADKSTSTAYMELSSLRSEDTAVYYCARSGYYGDSDWYFDVWGQGTLVTVSSAAADKTHTCPPCPAPPVAGPSVFLFPPKPKDTLMISRTPEVTCVVVDVSHEDPEVKFNWYVDGVEVHNAKTKPREEQYNSTYRVVSVLTVLHQDWLNGKEYKCKVSNKGLPSSIEKTISKAKGQPREPQVYTLPPCRDELTKNQVSLWCLVKGFYPSDIAVEWESNGQPENNYKTTPPVLDSDGSFFLYSKLTVDKSRWQQGNVFSCSVMHEALHNHYTQKSLSLSPGK
# notes: The scDb is monospecific for HER3; the CD3 site sits in the scFv arm; also called scDb3-43x3-43-Fc(hole)Δab + scFvhuU3-Fc(knob)Δab
# B3: scDbhu225xhuU3 (bispecific antibody)
# chain: EVQLVESGGGLVQPGGSLRLSCAASGFSLTNYGVHWVRQAPGKGLEWLGVIWSGGNTDYNTPFTSRFTISRDNSKNTLYLQMNSLRAEDTAVYYCARALTYYDYEFAYWGQGTTVTVSSGGGGSDIQMTQSPSSLSASVGDRVTITCRASQDIRNYLNWYQQKPGKAPKLLIYYTSRLHSGVPSRFSGSGSGTDFTFTISSLQPEDIATYYCQQGNTLPWTFGQGTKLEIKRGGGGSGGGGSGGGGSQVQLVQSGAEVKKPGSSVKVSCKASGGTFSGYTMNWVRQAPGQGLEWMGLINPYKGVSTYNGKFKDRVTITADKSTSTAYMELSSLRSEDTAVYYCARSGYYGDSDWYFDVWGQGTLVTVSSGGGGSDIQLTQSPSFLSASVGDRVTITCRASQSIGTNIHWYQQKPGKAPKLLIKYASESISGVPSRFSGSGSGTEFTLTISSLQPEDFATYYCQQNNNWPTTFGAGTKLEIKRAAAGGSGGGGSGGGTGGGGSLHHHHHH
# notes: the end number was counted from the printed lines; The His tag is part of the entry; also called bispecific scDb targeting CD3 and EGFR
# Columns and labels:
# EGFR [1] = target: T1, EGFR (UniProt P00533 25-1210, limits assumed); experiment: cell-based or functional assay
# EGFR [2] = target: T1, EGFR; experiment: flow cytometry, serial dilution on FaDu cells (EGFR-expressing), PE anti-His detection
# Description: (§1) Binding analysis of scDb and scDb-scFv was performed by flow cytometry using tumor cell lines with different EGFR-expression levels (Table 7). Adherent cells were washed with PBS and shortly trypsinized at 37° C. Trypsin was quenched with FCS-containing medium and removed by centrifugation (500×g, 5 min.). 1×10⁵ target cells/well (FaDu, Lim1215, T-47-D and SKBR-3) were incubated with a serial dilution of scDb or scDb-scFv for 1 h at 4° C. After removing excess of recombinant protein by washing with PBA (PBS, 2% FBS, and 0.02% sodium azide), bound protein was detected using PE-conjugated anti-hexahistidyl tag mAb (Miltenyi Biotec). Fluorescence was measured using MACSquant Analyzer 10 (Miltenyi Biotec) and data were analyzed using FlowJo (Tree Star). Relative median fluorescence intensities (MFI) were calculated as followed: relative MFI=((MFIₛₐₘₚₗₑ-(MFIdetection-MFIcells))/MFIcells).
# CD3 [3] = target: T2, CD3 (UniProt P07766 23-207); experiment: flow cytometry, serial dilution on Jurkat cells (CD3-expressing), PE anti-His detection
# T2 construct: whole, on cells; on cells it stands in the TCR/CD3 complex; also called CD3 on Jurkat cells
# EGFR [4] = target: T1, EGFR; experiment: flow cytometry, serial dilution on SKBR-3 cells (EGFR-expressing), PE anti-His detection
# Description: as §1
# EGFR [5] = target: T1, EGFR; experiment: flow cytometry, serial dilution on T-47-D cells (EGFR-expressing), PE anti-His detection
# Description: as §1
# EGFR [6] = target: T1, EGFR; experiment: flow cytometry, serial dilution on LIM1215 cells (EGFR-expressing), PE anti-His detection
# Description: as §1
# HER3 [7] = target: T3, HER3 (UniProt P21860 20-1342, limits assumed); experiment: cell-based or functional assay
# CD3 [8] = target: T2, CD3; experiment: flow cytometry, serial dilution on Jurkat cells (CD3-expressing), PE anti-human Fc detection
# Description: (§2) Binding of trivalent, bispecific fusion proteins to HER3-expressing (LIM1215, MCF-7) and CD3-expressing (Jurkat) cell lines was analyzed by flow cytometry. 2×10⁵ cells/well were incubated with a serial dilution of trivalent, bispecific antibodies for 1 h at 4° C. followed by detection using a PE-conjugated anti-human Fc antibody (Jackson ImmunoResearch Laboratories Inc). […] Concerning binding to the CD3-expressing cell line Jurkat, the trivalent, bispecific antibodies in the (1-2)+1 and in the (2−1)+1 orientation bound with EC₅₀ values in the low nanomolar range.
# HER3 [9] = target: T3, HER3; experiment: flow cytometry, serial dilution on MCF-7 cells (HER3-expressing), PE anti-human Fc detection
# Description: as §2
# HER3 [10] = target: T3, HER3; experiment: flow cytometry, serial dilution on LIM1215 cells (HER3-expressing), PE anti-human Fc detection
# Description: as §2
binder,measurement,setting,value
B1,"EC50 of PBMC cytotoxicity on FaDu cells, E:T 10:1",EGFR [1],0.009 nM
same,"EC50 of PBMC cytotoxicity on LIM1215 cells, E:T 10:1",EGFR [1],0.007 nM
same,"EC50 of PBMC cytotoxicity on SKBR-3 cells, E:T 10:1",EGFR [1],0.002 nM
same,"EC50 of PBMC cytotoxicity on T-47-D cells, E:T 10:1",EGFR [1],0.09 nM
same,EC50,EGFR [2],0.5 nM
same,EC50,CD3 [3],6.4 nM
same,EC50,EGFR [4],0.3 nM
same,EC50,EGFR [5],0.09 nM
same,EC50,EGFR [6],0.5 nM
B2,"EC50 of proliferation of CD4+ T-cells, MCF-7 co-culture",HER3 [7],0.393 nM
same,"EC50 of proliferation of CD8+ T-cells, MCF-7 co-culture",HER3 [7],0.191 nM
same,EC50,CD3 [8],0.7 nM
same,EC50,HER3 [9],0.4 nM
same,EC50,HER3 [10],0.882 nM
B3,"EC50 of PBMC cytotoxicity on FaDu cells, E:T 10:1",EGFR [1],> 10 nM
same,"EC50 of PBMC cytotoxicity on LIM1215 cells, E:T 10:1",EGFR [1],> 10 nM
same,"EC50 of PBMC cytotoxicity on SKBR-3 cells, E:T 10:1",EGFR [1],> 10 nM
same,"EC50 of PBMC cytotoxicity on T-47-D cells, E:T 10:1",EGFR [1],> 10 nM
same,EC50,EGFR [2],1.4 nM
same,EC50,CD3 [3],5.4 nM
same,EC50,EGFR [4],2.3 nM
same,EC50,EGFR [5],1.1 nM
same,EC50,EGFR [6],1.6 nM
